One substance from ChEMBL document CHEMBL2073795, “Secretory mechanisms of grepafloxacin and levofloxacin in the human intestinal cell line caco-2” (J Pharmacol Exp Ther, 2000) can be followed below.

For the series, the system named is Cc1c(F)c(N2CCNC(C)C2)cc2c1c(=O)c(C(=O)O)cn2C1CC1. Kind of series: TP_TRANSPORTER: transepithelial transport (basal to apical) in Caco-2 cells. The class given is functional, cell-based. Background: Caco-2 monolayers are a common model of the intestinal barrier.

As to “ATP-dependent translocase ABCB1 (Homo sapiens)”, the Km (as a rule, the substrate concentration at which the rate is half of its maximum) stood at 580 µM.
